This is an account of results in US20200299730A1.

Common to all, as to test: cell-based or functional assay
In assay [1] the target is MART-1 peptide pulsed on HLA-A02 expressing K562 target cells (human).
In assay [2] the target is MART-1 peptide pulsed on K562 target cells expressing the non-cognate MHC HLA-A01 (human).
Assay [3] addresses MART1 peptide-HLA (pHLA) single polypeptide chain (antigenic peptide, β2-microglobulin, HLA-A2 domains) constitutively expressed on K562 target cells (human).

For the substance “MART-1 (F5) TCR expressed by lentiviral transduction (pCCLc-MND-F5TCR-Myc271), on human CD3+ T cells (TCR; unit assumed)”, the Cytotoxic Killing was 38.1% in assay [1], 8.5% in assay [2] and 39.4% in assay [3].

Consider “MART-1 neoTCR (F5) encoded by HR template NTC9385R-TRAC(1k)DTS_P2A.F5.TRBopt.f-P2A.TRA(Va)opt (SEQ ID NO: 10), on edited primary human T cells”, for which, in assay [1], the single-cell secretome (Isoplexis), CD8+ T cells producing more than one cytokine was less than 40%.

As for “MART-1 neoTCR (F5) encoded by HR template NTC9385R-TRAC(1k)DTS_P2A.F5.TRBopt.f-P2A.TRAopt.BGHpA (SEQ ID NO: 9), on edited primary human T cells (TCR; unit assumed)”, the Cytotoxic Killing in assay [1] was 25.6%; in assay [2] it was 10.6%; in assay [3] it was 34.5%.

Turning to “NY-ESO (1G4) TCR expressed by lentiviral transduction (pCCLc-MND-1G4TCR-Myc271), on human CD3+ T cells (TCR; unit assumed)”, the results for the Cytotoxic Killing in assay [1], in assay [2] and in assay [3] were 8.7%, 8.3% and 8.4%, respectively.
